One experiment addresses T1, human PDL1 (human, UniProt Q9NZQ7 19-238).
T1 construct: Bought antigen; also called ACROBiosystems Cat. No. PD1-H52H3
The experiment is described as follows: SPR (Biacore 8K), antibody captured on chip, antigen injected. From the text:
(§1) The affinity properties of the HZ5G11 monoclonal antibody, the HZ14A9 monoclonal antibody, MHL147-3322-IgG1-wt and MHL147-3322-IgG1-F118A bispecific antibodies were characterized by Biacore. The HZ5G11 monoclonal antibody, the HZ14A9 monoclonal antibody, MHL147-3322-IgG1-wt and MHL147-3322-IgG1-F118A bispecific antibodies were respectively immobilized onto a sensing chip by a capture method, and a human PDL1 (manufacturer: ACROBiosystems, Cat. No. PD1-H52H3) or human CD47 (manufacturer: ACROBiosystems, Cat. No. CD7-H5227) protein antigen solution with a certain concentration gradient was injected into the sample. Association/dissociation curves were acquired in real time by Biacore 8K Control Software 3.0, and data analysis was performed by Biacore Insight Evaluation Software 3.0. An association rate constant Ka, a dissociation rate constant Kd, and an equilibrium constant KD were obtained.

Experiment [1] concerns the target heavy chain HZ5G11VH-CH1-IgG1. Kind of experiment: co-expression in ExpiCHO-S, protein A purification, non-reducing SDS-PAGE. The procedure: (§2) After transfection, the cells were placed in ExpiCHO™ medium (manufacturer: Thermo, Cat No. A2910001), and expressed and cultured at 32° C. with 5% CO₂ at 130 rpm. On day 10, the cell supernatant was collected, and the target protein was purified by protein A affinity chromatography using AKTA Pure 25 L system from GE and MabSelect SuRe LX packing. After elution, the concentration of the eluted protein was measured using NanoDrop Lite (Thermo Fisher Scientific). The purity of the eluted protein was measured by SEC-HPLC, and the protein purity of the sample used for the test was not lower than 80%. A total amount of […] of protein was taken from each sample and subjected to non-reducing SDS-PAGE electrophoresis. The protein was stained with Coomassie brilliant blue, and the electrophoresis results were observed.
(§3) After the co-expression and purification of HZ5G11VH-Cα-IgG1 and HZ14A9VL-IgK as well as HZ14A9VH-Cα-IgG1 and HZ5G11VL-IgK, various products were generated. […] The results above indicate that there is some interaction between the CL domain and MHCICα, thereby promoting the production of light and heavy-mispaired products.

The target of experiment [2] is heavy chain HZ14A9VH-CH1-IgG1. The experiment is described as above. The method, then: as §2, §3
For experiment [3], the target named is heavy chain HZ5G11VH-CH1-IgG1. Kind of experiment: co-expression in ExpiCHO-S, protein A purification, non-reducing SDS-PAGE, Coomassie stain. The method, then:
as §2, §3

The target of experiment [4] is heavy chain HZ14A9VH-Cα-IgG1. The experiment is described as follows: co-expression in ExpiCHO-S, protein A purification, non-reducing SDS-PAGE. The procedure:
as §2, §3

Experiment [5] concerns the target heavy chain HZ14A9VH-Cα-IgG1. Kind of experiment: co-expression in ExpiCHO-S, protein A purification, non-reducing SDS-PAGE, Coomassie stain.
The target of the next experiment is T2, human CD47 (human, UniProt Q08722 19-139).
T2 construct: Bought antigen; also called ACROBiosystems Cat. No. CD7-H5227
The experiment is described as follows: SPR (Biacore 8K), antibody captured on chip, antigen injected.
Excerpt: as §1
(Surface plasmon resonance follows binding to a sensor surface in real time, without labels.)

Experiment [6] concerns the target heavy chain HZ14A9VH-CH1-IgG1. Kind of experiment: co-expression in ExpiCHO-S, protein A purification, non-reducing SDS-PAGE, Coomassie stain. The procedure:
as §2, §3

The target of experiment [7] is T3, heavy chain HZ5G11VH-Cα-IgG1.
T3 construct: HZ5G11 heavy chain whose CH1 is replaced by MHCICα
Kind of experiment: co-expression in ExpiCHO-S, protein A purification, non-reducing SDS-PAGE. The procedure: as §2, §3

T1 sequence (Q9NZQ7 19-238 limits assumed): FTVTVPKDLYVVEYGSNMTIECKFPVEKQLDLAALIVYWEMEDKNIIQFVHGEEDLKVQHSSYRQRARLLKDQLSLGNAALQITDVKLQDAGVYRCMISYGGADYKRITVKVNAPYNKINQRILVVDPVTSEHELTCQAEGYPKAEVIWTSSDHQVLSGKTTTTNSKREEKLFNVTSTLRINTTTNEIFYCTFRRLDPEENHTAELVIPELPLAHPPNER
T2 sequence (Q08722 19-139 limits assumed): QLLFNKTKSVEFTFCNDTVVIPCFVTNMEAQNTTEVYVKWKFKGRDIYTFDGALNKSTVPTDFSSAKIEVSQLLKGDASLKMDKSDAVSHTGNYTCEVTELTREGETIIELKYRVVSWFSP

B1: HZ5G11 monoclonal antibody (antibody, V domains shown)
VH: QITLKESGPTLVKPTQTLTLTCTVSGFSLSTYGVHWIRQPPGKALEWLGVIWRGVTTDYNAAFMSRLTITKDNSKNQVVLTMNNMDPVDTATYYCARLGFYAMDYWGQGTLVTVSS
VL: DIQMTQSPSSLSASVGDRVTITCKASQSVSNDVAWYQQKPGKAPKLLIYYAANRYTGVPDRFSGSGYGTDFTFTISSLQPEDIATYFCQQDYTSPYTFGQGTKLEIKR
notes: Humanized IgG1 kappa antibody from a mouse hybridoma; also called monoclonal IgG1K antibody HZ5G11 targeting human PD-L1
In the experiment with human PDL1, B1 had a Kd of 0.282 nM, a koff of 0.000427 s⁻¹ and an association rate constant (kon) of 1.51e+06 M⁻¹ s⁻¹.

B2: light chain HZ14A9VL-Cβ (other)
light: DIQMTQSPSSLSASVGDRVTITCKASENVVSYVSWYQQKPGKAPKLLIYGASNRYTGVPSRFIGSGSSTDFTLTISSLQPEDFATYYCGQSYSYPLTFGQGTKLEIKIQRTPKIQVYSCHPAENGKSNFLNCYVSGFHPSDIEVDLLKNGERIEKVEHSDLSFSKDWSFYLLYYTRFTPTEKDEYACRVNHVTLSQPKIVKWDRGP
On to B2, for which the binding result in [1] is on record as “no binding”.

B3: light chain HZ5G11VL-Cβ (other)
light: DIQMTQSPSSLSASVGDRVTITCKASQSVSNDVAWYQQKPGKAPKLLIYYAANRYTGVPDRFSGSGYGTDFTFTISSLQPEDIATYFCQQDYTSPYTFGQGTKLEIKIQRTPKIQVYSCHPAENGKSNFLNCYVSGFHPSDIEVDLLKNGERIEKVEHSDLSFSKDWSFYLLYYTRFTPTEKDEYACRVNHVTLSQPKIVKWDRGP
notes: HZ5G11 light chain whose CL is replaced by MHCICβ
Take B3: the binding result in experiment [2] is given as “no binding”.

B4: light chain HZ5G11VL-IgK (other)
light: DIQMTQSPSSLSASVGDRVTITCKASQSVSNDVAWYQQKPGKAPKLLIYYAANRYTGVPDRFSGSGYGTDFTFTISSLQPEDIATYFCQQDYTSPYTFGQGTKLEIKRTVAAPSVFIFPPSDEQLKSGTASVVCLLNNFYPREAKVQWKVDNALQSGNSQESVTEQDSKDSTYSLSSTLTLSKADYEKHKVYACEVTHQGLSSPVTKSFNRGEC
Consider B4, for which the binding result in experiment [3], in [4] and in experiment [2] was “binds” in each case.

B5: HZ5G11VL-IgK-F116A (other)
light chain: DIQMTQSPSSLSASVGDRVTITCKASQSVSNDVAWYQQKPGKAPKLLIYYAANRYTGVPDRFSGSGYGTDFTFTISSLQPEDIATYFCQQDYTSPYTFGQGTKLEIKRTVAAPSVAIFPPSDEQLKSGTASVVCLLNNFYPREAKVQWKVDNALQSGNSQESVTEQDSKDSTYSLSSTLTLSKADYEKHKVYACEVTHQGLSSPVTKSFNRGEC
notes: Variant of m12; also called light chain HZ5G11VL-IgK with F116A (EU numbering) in the CL domain
For the molecule B5, in experiment [5], the binding result is given as “binds”.

B6: HZ5G11VL-IgK-S114A (other)
light chain: DIQMTQSPSSLSASVGDRVTITCKASQSVSNDVAWYQQKPGKAPKLLIYYAANRYTGVPDRFSGSGYGTDFTFTISSLQPEDIATYFCQQDYTSPYTFGQGTKLEIKRTVAAPAVFIFPPSDEQLKSGTASVVCLLNNFYPREAKVQWKVDNALQSGNSQESVTEQDSKDSTYSLSSTLTLSKADYEKHKVYACEVTHQGLSSPVTKSFNRGEC
notes: Variant of m12; also called light chain HZ5G11VL-IgK with S114A (EU numbering) in the CL domain
Turning to B6, the binding result in [5] was “binds”.

B7: HZ5G11VL-IgK-F118I (other)
light chain: DIQMTQSPSSLSASVGDRVTITCKASQSVSNDVAWYQQKPGKAPKLLIYYAANRYTGVPDRFSGSGYGTDFTFTISSLQPEDIATYFCQQDYTSPYTFGQGTKLEIKRTVAAPSVFIIPPSDEQLKSGTASVVCLLNNFYPREAKVQWKVDNALQSGNSQESVTEQDSKDSTYSLSSTLTLSKADYEKHKVYACEVTHQGLSSPVTKSFNRGEC
notes: Variant of m12; also called light chain HZ5G11VL-IgK with F118I (EU numbering) in the CL domain
Consider B7, for which the binding result in [5] was “binds”.

B8: HZ14A9 monoclonal antibody (antibody, V domains shown)
VH: QVQLVQSGAEVKKPGASVKVSCKVSGFNIEDDYIEWVRQAPGQGLEWMGRIDPANDKTKYAQKFQGRVTMTGDTSTNTVYMELSSLRSEDTAVYYCARPGLRRYYSMDYWGQGTLVTVSS
VL: DIQMTQSPSSLSASVGDRVTITCKASENVVSYVSWYQQKPGKAPKLLIYGASNRYTGVPSRFIGSGSSTDFTLTISSLQPEDFATYYCGQSYSYPLTFGQGTKLEIKR
notes: Humanized IgG1 kappa antibody from a mouse hybridoma; also called monoclonal IgG1K antibody HZ14A9 targeting human CD47
For B8, in the experiment with human CD47, the Kd is 5.85 nM, the koff was 0.0143 s⁻¹ and the kon came to 2.45e+06 M⁻¹ s⁻¹.

B9: light chain HZ14A9VL-IgK (other)
light: DIQMTQSPSSLSASVGDRVTITCKASENVVSYVSWYQQKPGKAPKLLIYGASNRYTGVPSRFIGSGSSTDFTLTISSLQPEDFATYYCGQSYSYPLTFGQGTKLEIKRTVAAPSVFIFPPSDEQLKSGTASVVCLLNNFYPREAKVQWKVDNALQSGNSQESVTEQDSKDSTYSLSSTLTLSKADYEKHKVYACEVTHQGLSSPVTKSFNRGEC
With B9, the binding result in [6], in experiment [7] and in experiment [1] was “binds” in each case.

B10: MHL147-3322-IgG1-wt (bispecific antibody)
heavy 1: not shown
light 1: DIQMTQSPSSLSASVGDRVTITCKASQSVSNDVAWYQQKPGKAPKLLIYYAANRYTGVPDRFSGSGYGTDFTFTISSLQPEDIATYFCQQDYTSPYTFGQGTKLEIKIQRTPKIQVYSCHPAENGKSNFLNCYVSGFHPSDIEVDLLKNGERIEKVEHSDLSFSKDWSFYLLYYTRFTPTEKDEYACRVNHVTLSQPKIVKWDRGP
heavy 2: not shown
light 2: DIQMTQSPSSLSASVGDRVTITCKASENVVSYVSWYQQKPGKAPKLLIYGASNRYTGVPSRFIGSGSSTDFTLTISSLQPEDFATYYCGQSYSYPLTFGQGTKLEIKRTVAAPSVFIFPPSDEQLKSGTASVVCLLNNFYPREAKVQWKVDNALQSGNSQESVTEQDSKDSTYSLSSTLTLSKADYEKHKVYACEVTHQGLSSPVTKSFNRGEC
notes: IgG1 bispecific with LALA (L234A+L235A) and KIH mutations; The PD-L1 arm is modified with MHC-I elements; the CD47 arm is a Fab with wild-type kappa CL; also called anti-PDL1*CD47 bispecific antibody
In the experiment with human CD47, B10 gave a dissociation constant (Kd) of 3.31 nM, a koff of 0.0124 s⁻¹ and a kon of 3.75e+06 M⁻¹ s⁻¹. In the experiment with human PDL1, this molecule registered a Kd of 0.304 nM, a koff of 0.000562 s⁻¹ and a kon of 1.85e+06 M⁻¹ s⁻¹.

B11: MHL147-3322-IgG1-F118A (bispecific antibody)
heavy 1: not shown
light 1: DIQMTQSPSSLSASVGDRVTITCKASQSVSNDVAWYQQKPGKAPKLLIYYAANRYTGVPDRFSGSGYGTDFTFTISSLQPEDIATYFCQQDYTSPYTFGQGTKLEIKIQRTPKIQVYSCHPAENGKSNFLNCYVSGFHPSDIEVDLLKNGERIEKVEHSDLSFSKDWSFYLLYYTRFTPTEKDEYACRVNHVTLSQPKIVKWDRGP
heavy 2: not shown
light 2: DIQMTQSPSSLSASVGDRVTITCKASENVVSYVSWYQQKPGKAPKLLIYGASNRYTGVPSRFIGSGSSTDFTLTISSLQPEDFATYYCGQSYSYPLTFGQGTKLEIKRTVAAPSVFIAPPSDEQLKSGTASVVCLLNNFYPREAKVQWKVDNALQSGNSQESVTEQDSKDSTYSLSSTLTLSKADYEKHKVYACEVTHQGLSSPVTKSFNRGEC
notes: IgG1 bispecific with LALA (L234A+L235A) and KIH mutations; The PD-L1 arm is modified with MHC-I elements; the CD47 arm is a Fab whose kappa CL carries F118A (EU numbering); also called MHL147-3322-F118A; anti-PDL1*CD47 bispecific antibody
In the experiment with human CD47, B11 registered a Kd of 5.26 nM, a koff of 0.0249 s⁻¹ and a kon of 4.74e+06 M⁻¹ s⁻¹. In the experiment with human PDL1, this molecule came in with a Kd of 0.384 nM, an off-rate (koff) of 0.000606 s⁻¹ and a kon of 1.58e+06 M⁻¹ s⁻¹.

For orientation: Kd means the free concentration of one partner at which half of the binding sites on the other are occupied at equilibrium, for simple one-to-one binding. Low values mean higher affinity, high ones lower affinity. A word on the koff: it is the first-order rate constant of dissociation. As a reminder, the kon is the rate constant with which the complex forms. High values mean fast association, low ones slow association.

Values taken from patent publication US20240092899A1 (CHIA TAI TIANQING PHARMACEUTICAL GROUP, published 2024).
